Measured values as given in article PMC7504508 (International Journal of Molecular Sciences, 2020).

Target: calmodulin (UniProt P0DP23 1-149)
Assay: SPR; GST-Sumo-Cx35 fusion proteins captured by immobilised anti-GST antibodies on a CM5 chip (Biacore 2000); calmodulin as analyte, 3 nM to 30 µM; GST-Sumo reference flowcell subtracted; 1 mM free Ca2+, 0.5 mM free Mg2+, 140 mM KCl, 10 mM MOPS pH 7.2, 0.05% Tween 20; first order ligand binding model
Settings: both partners purified

Kd: 6.29 µM
B1: GST-Sumo fusion protein of the perch Connexin 35 intracellular loop (amino acids 101-192) (domain or fragment)
chain: SAKQKERRYSTVYLTLDKDQDSLKRDESKKIKNTIVNGVLQNTENSTKEAEPDCLEVKEIPNSAMRTTKSKMRRQEGISRFYIIQVVFRNAL
